Laboratory results published in article PMC2847220 (Nucleic Acids Research, 2009).

Target: the molecule itself
Test: AUC

B1: Tpa1Δ20, N-terminal truncated form (residues 21–644) of S. cerevisiae Tpa1 (domain or fragment, UniProt P40032 21-644, looked up)
chain: LEEDKIKGMFNPKIWDKTFQDGLKKEIEDSQPYNWGTIHELVNDDLLRAVRKEIETEIHFTKKETDIYRVNQSGDLANLSGLDWDDLSRLPNLFKLRQILYSKQYRDFFGYVTKAGKLSGSKTDMSINTYTKGCHLLTHDDVIGSRRISFILYLPDPDRKWKSHYGGGLRLFPSILPNVPHSDPSAKLVPQFNQIAFFKVLPGFSFHDVEEVKVDKHRLSIQGWYHIPQVGEEGYIPGEEEAWVRNNTSTLAQIESNVLEDFEFPKDERNILSFHEVKHFEKMLKGDAGAKTDNTPKESMTSVISDSVKLSEAEFTYLSQYISPEHLSSKGIEKLQKQFVENSSLQIESFLNDDKSELLKKVIKQKELEQECPYHSKDVKAPWKTAIPPHKARYLYIDGKEYRNFQTEADILEALNNNDLPNFQFTKDAIKIISDASGNSRENNFDAELALIDLAVFHKSTIFKKYLALLTSLCPVSEQILIRRFRPGMDFTLATKCRFNELLKSNPDIIDAVLEGTLCLTPSAGWESGELGGYELYMMDDDEDNKQYLKEDVEDASVYRADDSGDSVLINDPPAWNTFNLVLRDESVLEFVKYVSWSAKSSRWDVKMKWDVKSCDEDGQEDEA
**Q.** How did the “stoichiometry N” value turn out when B1 was run?
**A.** The value was 2.
